Tests used:
DinB (DNA polymerase IV) = target: T1, DinB (DNA polymerase IV) (Escherichia coli, UniProt Q47155 1-351); assay: NMR titration; BLI: 50 mM KPi pH 6.5, 50 mM NaCl, 10 mM MgSO4, 1 mM TCEP, 303 K; NMR titrations: NMR buffer (composition in Supplementary Table S2, not fully given), 298 K; conditions: protein: recombinant; tags: N-terminal His6; blunt; each strand also partly self-complementary (called self-complementary in text)
T1 sequence: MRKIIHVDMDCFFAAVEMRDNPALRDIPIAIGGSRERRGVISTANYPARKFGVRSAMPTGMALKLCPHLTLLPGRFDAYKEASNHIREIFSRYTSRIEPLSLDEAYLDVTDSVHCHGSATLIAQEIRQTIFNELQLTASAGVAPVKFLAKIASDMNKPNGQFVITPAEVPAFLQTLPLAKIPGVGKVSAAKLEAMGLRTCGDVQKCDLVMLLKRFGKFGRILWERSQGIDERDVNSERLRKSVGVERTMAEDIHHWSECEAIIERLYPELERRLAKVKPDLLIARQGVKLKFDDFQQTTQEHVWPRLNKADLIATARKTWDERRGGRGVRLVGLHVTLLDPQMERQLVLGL

DinBΔPAD = target: T2, DinBΔPAD (Escherichia coli, UniProt Q47155 1-230); assay: as above; conditions: protein: recombinant; tags: N-terminal His6 (stop codon at 231; tag inferred from parent plasmid); blunt; each strand also partly self-complementary (called self-complementary in text)
T2 sequence: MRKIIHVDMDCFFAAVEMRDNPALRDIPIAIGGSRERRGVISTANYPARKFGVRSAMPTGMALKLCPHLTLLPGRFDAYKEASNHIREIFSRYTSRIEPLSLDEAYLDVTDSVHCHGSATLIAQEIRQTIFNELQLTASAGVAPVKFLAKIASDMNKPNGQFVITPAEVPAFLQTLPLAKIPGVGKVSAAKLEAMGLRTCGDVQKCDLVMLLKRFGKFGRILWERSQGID

B1: 18mer dsDNA (dsDNA)
DNA 1: TCTAGGGTCCTAGGACCC
DNA 2: GGGTCCTAGGACCCTAGA
B1: binds (DinB (DNA polymerase IV)); binds (DinBΔPAD).
